Measurements: the DeepSol protein solubility set

Test: soluble on expression in E. coli; label from the status in PepcDB or PDB records
In the case of “MSERIASVERTTSETHISCTIDLDHIPGVTEQKINVSTGIGFLDHMFTALAKHGGMSLQLQCKGDLHIDDHHTAEDCALALGEAFKKALGERKGIKRYGYAYAPLDESLSRAVIDISSRPYFMCHLPFTREKVGDLSTEMVSHLLQSFAFAAGVTLHIDSIRGENNHHIAESAFKALALAIRMAISRTGGDDVPSTKGVLAL”, the “soluble on expression in E. coli” value is reported as “soluble”.
In the case of “MSERIVPSGDVELWSDDFGDPADPALLLVMGGNLSALGWPDEFARRLADGGLHVIRYDHRDTGRSTTRDFAAHPYGFGELAADAVAVLDGWGVDRAHVVGLSMGATITQVIALDHHDRLSSLTMLLGGGLDIDFDANIERVMRGEPTLDGLPGPQQPFLDALALMNQPAEGRAAEVAKRVSKWRILSGTGVPFDDAEYARWEERAIDHAGGVLAEPYAHYSLTLPPPSRAAELREVTVPTLVIQAEHDPIAPAPHGKHLAGLIPTARLAEIPGMGHALPSSVHGPLAEVILAHTRSAA”, the “soluble on expression in E. coli” value is reported as “soluble”.
In the case of “MSERLESRLAKVPKVTPEDIGNWLAEAETESELTEELNANAVFYLALSFAYESIAADAARYFSYTDGEESVDKSMIFANYKKLSADALKKYRKYRRGKGTHQTFAKRADGR”, the “soluble on expression in E. coli” value is reported as “not soluble”.
In the case of “MSERRDCIVCTSGTCGRSWVFFRSGSGRRCIRSIFRESEGRTFGSNRISGSADHWTAIVERRKSRERGSKMKKEMTNDMTVGSPTKLIIQFMIPMCLGNVFQQFYNIADS”, the “soluble on expression in E. coli” value is reported as “not soluble”.
With “MSERSVSKQDQEKRWYTVLAPEEFDRAELGETLAEEPDQVYDRTIQAALSDVRDGGDNNIKLTFQIDDVGSDSASTQFVQAELTRDYQRSLVRRGSSKVAVTVTVLTTDDYRVRIQPVAYTTKQADQSQQHAIRRTMIDLVEEAGEERTFEALLNSIIEGRLSSAIYDEANTIYPLRRVEVEKATLEAHPEEVHEEEETAVDFSGELEHHHHHH” the “soluble on expression in E. coli” value was “soluble”.
With “MSEVLTRGFRFRPADEEVTDYLMRKTQSPEFSCFIKTIDLYDKDPWVLGHVRDPCYNHYEWYYFVKKNPLGNEYLDKPRLNGFEHPRLKWDVLKQIHDALSSGQNVPPSVFTYGFRFHPTDQELLSLYLTPKAHSPDFSCFIRERESYMPWSHGFLNMLDLLFTRTVNGTTL” the “soluble on expression in E. coli” value was “soluble”.
In the case of “MSFETKPNYLLLTNPDTPLSVCTSPYYSPSGKTASIPSSEASKPEGTNGQWSHLPTGATYVTDEFSSEFQIQNGSTAAQSGNANNYADPLSHRRYFNNVNGYNHHQFYDTASQASVSSPATSVTSSLSPPDSLSNGHTTQRHHIGKAISFCKVCGDKASGYHYGVTSCEGCKGFFRRSIQRKIDYRCLKQQVCEIKRESRNRCQYCRFKKCLDSGMSKDSVRQMKFRNAMRDDKSPDSVFVPEISTLERQEEVDAVYEAVLRAHTTFSFYTDIKIRSIVARPFNVRINEDSKMNRLNAWQIYAHEIDVDIKEVVNFVKEIPKFNFINGNDKAVLLRKNAFPLYLLRIVRGMSNRGLMLRDGRLIDFKSLQLLYGSLADEMLAFANHIITIGCTDGDIALFIVLILCQPLTTEQQFSTNFKSQLQLLEMFDFYKKVLFQKMTCRIDGCDTYKQLMKCIHELNRLNELHKQQLNILRENLSFLNLPPLVVEMFQLSTLPLPVNHNNQENQYTPAPEHQSPQPQQPTPNQQQTPVHC”, the “soluble on expression in E. coli” value is reported as “not soluble”.
With “MSFIDPYQHIIVEHQYSHKFTVVVLRATKVTKGAFGDMLDTPDPYVELFISTTPDSRKRTRHFNNDINPVWNETFEFILDPNQENVLEITLMDANYVMDETLGTATFTVSSMKVGEKKEVPFIFNQVTEMVLEMSLEV” the “soluble on expression in E. coli” value was “soluble”.
In the case of “MSGAGHSLNSDPVTTIATSSSEPVTSPSSASHVPVQTAPASHGAPSSVASQPPASVDGKAGAPDEARTASSASNPQGSEHPGSVDPAATTTAATTSASTTSITSTAATTTTTTTTGTTATGRVSPTIPPETLFHDAIKRCNNCLFLIRKLRNKQDHIARLFLDTSGNDQAEFNSAFQNYKDFGLMVHEVMMFYDKLDHIARHLPKALPPIDNINLMRTLYTQEHTMCHININNLLEKMIDCGNWNEGNFQTFFYLSELLRCGSTRKYSNLPEQRLVPPAMFHSQATNSHAAFEHAFNGLRKEIANKSLGIYPKVLQRTTCSLIIEFLFGCGGAKPGEKNTDKEIVYTIKFLIIERNGSIEYINIMAPTEDWHMVNDYAIPTINPFAPSRYEVYRRLTKQANIHLFNCFAQNRWTAGTLFHFISLYGKFRELFTTKCRSCKQVLSRKNFLPPLIFDIRNPNNAAHEVCR”, the “soluble on expression in E. coli” value is reported as “not soluble”.
For “MSGDDYMGAMALLGIKPDTDPLSIKRAYRRLLSRHHPDKIAGSGANAQQVRVATEKTSELHNAYRVVKARRGFALEHHHHHH”, the “soluble on expression in E. coli” value was “not soluble”.
With “MSGEGMTAVSEPVQLTVPQMLAQLQGTDTSLRYYAAWWLGKFGLETATAAERQAIVSALIAALADEADRTELGGYPLRRNAARALGKLGDRQAVPALIECLRCEDFYVREAAAIALGQLGDPRAIAPLQSLLEGGVAMARLVPGRPHLVQPVEAVIESLGHLGATEAIALIEPFLAHEMPRVQFAAARALFQLTGDAVYGDRLLAALNSEDVQLRRTALLDLGAMGYLPAAEAILQAGVEASFKLIALHGILGQQLRQAAPAEQTLSLFQGLDQLLLEHHHHHH” the “soluble on expression in E. coli” value was “soluble”.
With “MSGESVIEFTGFIKACRLFRENRLAEAEAVCTNLLRKNPLDQATWALKMQCLSDSTYVDELENEDMGLAETFLDQNVIAPNARPGTSFARPKTSAKGVNPILRPTTNAGRPLSGVVRPQSSFKSGSMDQAVRTARTAKTARAVSSTSARNMRLGTASMAAGADGEFVNLARLNIDKYAADPQVNRQLFEYVFYYLNDIRVAHQIAGTASKAAGFEDYYWKNQLAKCYLRLGMLQDATKQLQSSLEQKKLIETFALLSKAYNRVDQPMAALKTYSAGLEVFPENVTMLTGMARVQEALGEYDESVKLYKRVLDAESNNIEAIACVATTYYYGGKPELAMRYYRRILQMGVSSPELFLNIGLCCMAAQQFDFALSSILRAQSTMTDDVAADVWYNIGQILVDIGDLVSAARSFRIALSHDPDHSESLVNLGILKHREGKIDEARSLYSSATSKNPYMFEGNYNLGLVSFTQGKYHECRELIEKALAAFPEHEHCKKILNHLKPLYESI” the “soluble on expression in E. coli” value was “not soluble”.
With “MSGFIPGSTTGSMLTAISDTHGTDNHRLTGRTLDAVREADHVLHAGDFMTEQVLDAIDAESDELTGVVGNNDRPAVRARLSDVATVSWEELTIVVVHGHEHTETALGMLARQENADIVVVGHSHKPVLTDFGGWTLVNPGSYADPRRYQPAHAELDVMAGDVRVRLRSPDGTPISTTIVERLEHHHHHH” the “soluble on expression in E. coli” value was “not soluble”.
In the case of “MSGGKLPEGWATSTINEMCNLNPKLKLDDDLDVGFMPMAGVPTTYLGKCNFETKKWSEVKKGFTQFQNDDVIFAKITPCFENGKAVVIKEFPNGYGAGSTEYYVLRSINGLINPHWLFALVKTKDFLTNGALNMSGSVGHKRVTKEFLENYGVPVPPLAEQKVIAEKLDTLLAQVDSTKARLEQIPQILKRFRQSVIVAAVNGQLTKELHKKNKFKLTELNISIPSLWKISEIGQFADVKGGKRLPKGESLIAENTGFPYIRAGQLKNGTVLPEGQLYLEEYIQKSISRYTVSSGDLYITIVGACIGDAGIIPDVYNNANLTENAAKICNLNENIFNRFLSLWLRSSYLQDIINSEIKSGAQGKLALARIKSLPLILPPLQEQHEIVRRVEQLFAYADTIEKQVNNALTRVNSLTQSILAKAFRGELTAQWRAENPELISGENSAAALLEKIKAERAASGGKKTSRKKA”, the “soluble on expression in E. coli” value is reported as “not soluble”.
With “MSGKNEADSKDTGWEQIKDKGKIVVATSGTLYPTSYHDTDSGSDKLTGYEVEVVREAAKRLGLKVEFKEMGIDGMLTAVNSGQVDAAANDIDVTKDREEKFAFSTPYKYSYGTAIVRKDDLSGIKTLKDLKGKKAAGAATTVYMEVARKYGAKEVIYDNATNEQYLKDVANGRTDVILNDYYLQTLALAAFPDLNITIHPDIKYMPNKQALVMKKSNAALQKKMNEALKEMSKDGSLTKLSKQFFNKADVSKKIDADVQDVDLLEHHHHHH” the “soluble on expression in E. coli” value was “soluble”.
With “MSGKVVRPSAALLEVFKSWQGGAIRVQRNEKLKTRLDVILDRPEKNNCLSGEMMKQFGEHTELFSDDQNAIIVVSGVGKSFCSGADLGLIKDISDQKLGVQMFEYMSSILSLLHSSPAISIAKIHGHALGGATEICSSTDIRIAHSGSKIAFFQSKMGIVPSWGGAEYMEGIMGRGRALAAMGRANVMSAEEAKDQGYVDYVYKSEDEAENFINQVASAGLKVTRAQKAMLNAVKIGKTEQKQVLEAVWNGETHRNALQKQLEAVVKK” the “soluble on expression in E. coli” value was “not soluble”.
